US20130344509A1 (published 2013)

What was measured:
[1] = target: T1, human TROP-2 (hTROP-2) protein endogenously expressed on the cell surface of human cancer cell lines (human, UniProt P09758 27-323); test: FACS on PK-59 cells, 0.1 µg antibody
T1 construct: on PK-59, BxPC-3 and other human cancer cell lines, or in human tissue sections; also called TACSTD2; GA733-1
T1 sequence: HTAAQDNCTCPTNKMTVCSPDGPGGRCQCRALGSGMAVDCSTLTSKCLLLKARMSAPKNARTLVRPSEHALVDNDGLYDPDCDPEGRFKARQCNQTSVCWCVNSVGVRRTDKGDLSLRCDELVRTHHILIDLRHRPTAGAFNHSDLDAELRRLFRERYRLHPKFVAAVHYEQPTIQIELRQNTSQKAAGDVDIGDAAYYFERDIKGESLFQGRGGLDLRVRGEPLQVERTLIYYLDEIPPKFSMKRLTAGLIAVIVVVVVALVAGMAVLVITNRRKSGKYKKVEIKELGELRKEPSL
Protocol: (§1) Cancer cells were removed from a culture dish by a trypsin treatment, and a cell suspension was then prepared (cell density: 2×10⁶ cells/mL). An anti-hTROP-2 monoclonal antibody (0.1 μg) was added to 100 μL of the cell suspension, and they were then reacted at 4° C. for 20 minutes. The reaction solution was washed with PBS, and it was then reacted with PE-labeled anti-mouse IgG (BD Biosciences Pharmingen) (0.1 μg) (at 4° C. for 30 minutes). Thereafter, the resultant was analyzed by FACSCalibur (Becton, Dickinson and Company).
(§2) Subsequently, the reactivity of the generated anti-hTROP-2 monoclonal antibodies with human cancer cell lines (in which an hTROP-2 protein was endogenously expressed on the cell surface) was examined by FACS analysis.

[2] = target: T1, human TROP-2 (hTROP-2) protein …; test: FACS on BxPC-3 cells, 0.1 µg antibody
Protocol: as §1, §2

[3] = target: T2, Table 9 peptide No. 26; test: PEPSCAN/CLIPS peptide ELISA, 1 µg/mL antibody
T2 sequence (peptide): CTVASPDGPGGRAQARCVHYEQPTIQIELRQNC

B1: anti-hTROP-2 monoclonal antibody clone K5-116-2-1 (antibody, V domains shown)
VH: QVQLQQPGAELVRPGASVKLSCKASGYTFTSYWITWVKQRPGQGLEWIGNIYPSDSYTNYNQKFRDKATLTVDKSSSTAYMQLSSPTSEDSAVYYCSALFDYWGQGTTLTVSS
VL: DILLTQSPAILSVSPGERVSFSCRASQSIGTSIHWYQQRTNGSPRLLIKYASESISGIPSRFSGSGSGTDFILSINSVESEDIADYYCQQSNSWPFTFGSGTKLEIK
notes: mouse IgG2a; hybridoma FERM BP-11253
- mean fluorescence intensity relative to PE-labeled anti-mouse IgG alone [1]: 122 times
- mean fluorescence intensity relative to PE-labeled anti-mouse IgG alone [2]: 121 times
- binding of K5-116-2-1 [3]: 1220
